Assay [1] has as its target rhodamine-labelled SemD (SemD^Rhod) (Chlamydia pneumoniae). Put plainly: recruitment to giant unilamellar vesicles (confocal microscopy); PS-containing GUVs with bound SemD^Rhod or mutSemD^Rhod (1 µg) and GFP-fused partner (1 µg) in PBS, room temperature, imaged 5-20 min; fluorescence intensity ratio of GUV perimeter to background.
For assay [2], the target named is BR-GBD fused to GFP (BR-GBD_(GFP-His)) (Rattus norvegicus) (UniProt O08816). Put plainly: pull-down; GFP-Trap agarose, BR-GBD_(GFP-His) as bait, equimolar SemDΔAPHHis and Cdc42_(GppNHp) added simultaneously; immunoblot, normalised Elution:FT ratio.
The target in assay [3] is N-WASP BR-GBD_(142-273) (Rattus norvegicus) (UniProt O08816). Put plainly: SEC-SAXS; Superdex200 increase 10/300 GL, PBS pH 8.5 + 3 % glycerol, 20 °C; 8 mg/ml SemDΔAPH, 10 mg/ml BR-GBD, 8 mg/ml SemDΔAPH + BR-GBD, 3.3 mg/l SemDΔAPH + SNX9-SH3. (In general: In gel filtration, larger molecules generally elute earlier.)
In assay [4] the target is BR-GBD fused to GFP (BR-GBD_(GFP-His)) (Rattus norvegicus) (UniProt O08816). Put plainly: pull-down; GFP-Trap agarose, BR-GBD_(GFP-His) or GFP alone as bait, equimolar test protein, 5 min RT then 30 min 4 °C, washed 6x with 10 mM Tris-HCl, 200 mM NaCl, pH 8.5; immunoblot, Elution:FT ratio normalised to the bait. (In general: In western blotting, separated proteins are transferred to a membrane and probed.)

In the next assay the target is SNX9-SH3GFP. Put plainly: GUV membrane recruitment assay, confocal fluorescence quantification. Particulars: PS-containing GUVs, read off a plot.

This is an account of results in article PMC11344771.

Bounds are passed on as bounds.

BR-GBD fused to GFP (BR-GBD_(GFP-His)) (Rattus norvegicus), sequence (O08816 142-273): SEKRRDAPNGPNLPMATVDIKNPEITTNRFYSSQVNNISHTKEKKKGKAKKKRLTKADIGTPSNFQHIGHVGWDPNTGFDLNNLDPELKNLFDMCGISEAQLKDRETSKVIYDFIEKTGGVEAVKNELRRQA
BR-GBDΔGFP (lacking the BR domain), sequence (O08816 other isoform, or with tags, fused parts or gaps mutant): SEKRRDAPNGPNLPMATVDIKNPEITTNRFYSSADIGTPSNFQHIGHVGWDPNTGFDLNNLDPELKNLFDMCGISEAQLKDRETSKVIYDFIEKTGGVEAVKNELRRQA
BR-GBD fused to GFP (BR-GBD_(GFP-His)), sequence (O08816 142-273): as the sequence (O08816 142-273) above
N-WASP BR-GBD_(142-273) (Rattus norvegicus), sequence (O08816 142-273): as above

As to “BR-GBD fused to GFP (BR-GBD_(GFP-His)) (from UniProt O08816 142-273) (domain or fragment)”, the fluorescence intensity ratio (GUV perimeter to background) in assay [1] was found to be 44.5 fold.

For the substance “BR-GBDΔGFP (lacking the BR domain) (from UniProt O08816 142-273) (domain or fragment)”, the fold lower fluorescence intensity ratio than BR-GBDGFP (after 20 min) in assay [1] was above 18 fold.

As a reminder, the stoichiometry N is a count of units in the complex or per binding partner. Take SemDΔAPH_(67-382) (domain or fragment): the normalised Elution:FT ratio (with equimolar Cdc42 (GppNHp)) in assay [2] came to 100%. Besides, in assay [3], the stoichiometry N amounted to 1. For the same substance, the normalised Elution:FT ratio in assay [4] came out at 100%.

For “rhodamine-labelled SemD (SemD^Rhod) R91V; P92A; R94V; P95A; P97V; P98A; P99V; P100A; R117V; P119A; P121V; P122A”, the response with SNX9-SH3GFP (5 min, parent: est. 950) worked out at 1.1; with SNX9-SH3GFP (20 min, parent: est. 830), 1.1.
